This note sets out measurements from patent publication US20250122300A1 (INSERM INSTITUT NATIONAL DE LA SANT ET DE LA RECHERCHE M …, published 2025).

Numbering of substitutions follows the chain as printed.

In experiment [1] the target is macaque CD45RC (cynomolgus macaque). Put plainly: flow cytometry, cynomolgus macaque PBMC, CD3+ cells (p-1488). (In general: Flow cytometry measures light scatter and fluorescence of single cells or particles in a stream.)
For experiment [2] the target is unchanged. In words: flow cytometry, cynomolgus macaque PBMC, CD3- cells.
Experiment [3] addresses T1, human CD45RC (human, UniProt P08575 26-1306).
T1 construct: In flow cytometry the protein is on human PBMC (which may also carry other CD45 isoforms with the C determinant); in the SPR assay it is in solubilised membranes of CD45RC-high PBMC or of CHO cells transfected with CD45RC; also called hCD45RC
T1 sequence: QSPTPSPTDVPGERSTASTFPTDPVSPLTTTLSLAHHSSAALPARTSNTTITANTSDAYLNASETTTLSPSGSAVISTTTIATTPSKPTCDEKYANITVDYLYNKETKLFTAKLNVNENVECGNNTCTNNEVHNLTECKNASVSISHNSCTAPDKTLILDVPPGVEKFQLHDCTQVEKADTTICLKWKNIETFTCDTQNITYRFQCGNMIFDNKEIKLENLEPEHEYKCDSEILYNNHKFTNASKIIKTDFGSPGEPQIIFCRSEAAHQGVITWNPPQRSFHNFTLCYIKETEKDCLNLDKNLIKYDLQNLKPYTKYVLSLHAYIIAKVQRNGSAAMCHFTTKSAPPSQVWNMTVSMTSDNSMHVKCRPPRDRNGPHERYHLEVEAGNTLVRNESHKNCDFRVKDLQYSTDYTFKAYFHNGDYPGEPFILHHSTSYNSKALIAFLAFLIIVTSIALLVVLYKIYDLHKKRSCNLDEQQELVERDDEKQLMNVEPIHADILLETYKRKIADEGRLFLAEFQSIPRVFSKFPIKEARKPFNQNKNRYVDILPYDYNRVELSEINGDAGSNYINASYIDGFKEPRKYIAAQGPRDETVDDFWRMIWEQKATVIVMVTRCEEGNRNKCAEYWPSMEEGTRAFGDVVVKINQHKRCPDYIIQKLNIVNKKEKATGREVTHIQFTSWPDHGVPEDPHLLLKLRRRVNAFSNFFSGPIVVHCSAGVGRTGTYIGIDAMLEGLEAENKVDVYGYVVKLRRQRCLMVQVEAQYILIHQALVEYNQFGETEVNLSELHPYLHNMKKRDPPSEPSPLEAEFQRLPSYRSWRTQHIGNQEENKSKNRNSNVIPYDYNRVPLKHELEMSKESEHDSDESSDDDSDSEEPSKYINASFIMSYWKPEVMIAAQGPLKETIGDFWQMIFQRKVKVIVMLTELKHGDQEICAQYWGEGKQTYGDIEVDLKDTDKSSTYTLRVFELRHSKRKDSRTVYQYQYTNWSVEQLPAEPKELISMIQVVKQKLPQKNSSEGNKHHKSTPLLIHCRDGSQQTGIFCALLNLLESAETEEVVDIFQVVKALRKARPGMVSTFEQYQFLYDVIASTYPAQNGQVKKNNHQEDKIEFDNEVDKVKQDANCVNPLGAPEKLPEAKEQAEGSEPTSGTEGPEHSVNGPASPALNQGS
In words: flow cytometry, human whole blood; CD8+ T [1].

In experiment [4] the target is T1, human CD45RC. Put plainly: flow cytometry, human whole blood; T cells [1].
Experiment [5] has as its target T1, human CD45RC. Put plainly: flow cytometry, human whole blood; Neutrophils [3].
Experiment [6] has as its target T1, human CD45RC. In words: flow cytometry, human whole blood; Monocytes CD14highCD16- [2].
Experiment [7] deals with T1, human CD45RC. In words: flow cytometry, human whole blood; NK [1].
Experiment [8] deals with T1, human CD45RC. In words: flow cytometry, human whole blood; mDC [3].
Experiment [9] has as its target T1, human CD45RC. In words: flow cytometry, human whole blood; ILC3 [2].
In experiment [10] the target is T1, human CD45RC. In words: flow cytometry, human whole blood; MAIT [2].
For experiment [11], the target named is T1, human CD45RC. In words: flow cytometry, human whole blood; Eosinophils [3].
Experiment [12] deals with T1, human CD45RC. In words: flow cytometry, human whole blood; NKT [2].
Experiment [13] addresses T1, human CD45RC. Put plainly: flow cytometry, human whole blood; Monocytes CD14intCD16+ [3].
Experiment [14] concerns the target T1, human CD45RC. In words: flow cytometry, human whole blood; CD3+ TCRab [1].
Experiment [15] deals with T1, human CD45RC. Put plainly: flow cytometry, human whole blood; iNKT [2].
Experiment [16] deals with T1, human CD45RC. In words: flow cytometry, human whole blood; ILC1 [2].
Experiment [17] addresses T1, human CD45RC. In words: flow cytometry, human whole blood; CD3+ TCRgd [1].
For experiment [18], the target named is T1, human CD45RC. Put plainly: flow cytometry, human whole blood; CD4+ T [1].
The target in experiment [19] is T1, human CD45RC. In words: flow cytometry, human whole blood; CD4+ Treg (CD25+CD127-) [1].
For experiment [20], the target named is T1, human CD45RC. In words: flow cytometry, human whole blood; B cells [1].
Experiment [21] addresses T1, human CD45RC. In words: flow cytometry, human whole blood; Monocytes CD14+ [2].
The target of experiment [22] is T1, human CD45RC. In words: flow cytometry, human whole blood; ILC2 [2].
The target in experiment [23] is T1, human CD45RC. Put plainly: flow cytometry, human whole blood; pDC [3].
For experiment [24], the target named is T1, human CD45RC. Put plainly: flow cytometry, human whole blood; Basophils [3].
Experiment [25] has as its target macaque CD45RC (cynomolgus macaque). Put plainly: flow cytometry, cynomolgus macaque PBMC, CD3- cells; 10 µg/ml (p-1486).
The target is the same in experiment [26]. In words: flow cytometry, cynomolgus macaque PBMC, CD3+ cells (p-1488); 10 µg/ml (p-1486).
The target in experiment [27] is T1, human CD45RC. Put plainly: SPR (BIAcore 3000 / T200), ABIS-45RC immobilised on CM5 chip, solubilised membranes of CD45RC-high PBMC or CD45RC-transfected CHO cells as analyte, 25 C, single cycle kinetics. An excerpt:
Briefly, 1×10⁷ CD45RC^high PBMCs or CHO cells expressing CD45RC after plasmid transfection were solubilized using the Mem-PER membrane isolation kit (Thermo-fisher).

On to Isotype (antibody), for which the % of cells CD45RC+ was 4.37% in [1] and 2.7% in experiment [2].

Turning to MT2 (antibody), the % of cells CD45RC high with human CD45RC [3] came to 38.8%; in the experiment with human CD45RC [4], 7.43%; in the experiment with human CD45RC [5], 0.014%; with human CD45RC [6] it was 0.091%; with human CD45RC [7], 28.6%; with human CD45RC [8] it was 0%. For the same molecule, the % of cells CD45RC high with human CD45RC [9] worked out at 50%; with human CD45RC [10] it was 5.89%; with human CD45RC [11] it was 0.47%; with human CD45RC [12] it was 34.4%; with human CD45RC [13], 6.45%; with human CD45RC [14], 8.34%. In addition, the % of cells CD45RC high with human CD45RC [15] was found to be 24.1%; with human CD45RC [16] it was 9.3%; with human CD45RC [17], 1.93%; with human CD45RC [18] it was 3.64%; with human CD45RC [19] it was 3.52%; with human CD45RC [20], 79.9%. The % of cells CD45RC high in the experiment with human CD45RC [21] was found to be 0.43%; with human CD45RC [22], 45%; with human CD45RC [23], 1.84%; in the experiment with human CD45RC [24], 0%. The % of cells CD45RC low in the experiment with human CD45RC [3] stood at 39.7%; in the experiment with human CD45RC [4], 49.7%; in the experiment with human CD45RC [5] it was 19.3%; with human CD45RC [6], 38.3%; in the experiment with human CD45RC [7], 70.4%; with human CD45RC [8], 14.3%. The % of cells CD45RC low in the experiment with human CD45RC [9] turned out to be 50%; in the experiment with human CD45RC [10], 71%; in the experiment with human CD45RC [11], 90.5%; in the experiment with human CD45RC [12] it was 54.2%; with human CD45RC [13], 87.7%; with human CD45RC [14] it was 46.2%. Moreover, the % of cells CD45RC low in the experiment with human CD45RC [15] is 61.6%; in the experiment with human CD45RC [16], 27.5%; with human CD45RC [17], 90.6%; with human CD45RC [18], 47.2%; in the experiment with human CD45RC [19], 19.8%; with human CD45RC [20], 20.1%. The % of cells CD45RC low stood at 43.9% in the experiment with human CD45RC [21], 49.5% with human CD45RC [22], 97.9% with human CD45RC [23] and 7.3% in the experiment with human CD45RC [24]. The % of cells CD45RC negative was determined as 21.5% with human CD45RC [3]; 42.9% in the experiment with human CD45RC [4]; 80.7% with human CD45RC [5]; 61.6% in the experiment with human CD45RC [6]; 1% with human CD45RC [7]; 85.7% with human CD45RC [8]. In addition, the % of cells CD45RC negative in the experiment with human CD45RC [9] was 0%; with human CD45RC [10], 23.2%; with human CD45RC [11], 9.08%; with human CD45RC [12] it was 11.4%; with human CD45RC [13], 5.87%; with human CD45RC [14], 45.5%. Further, the % of cells CD45RC negative in the experiment with human CD45RC [15] was 14.3%; in the experiment with human CD45RC [16], 63.2%; with human CD45RC [17] it was 7.46%; with human CD45RC [18], 49.2%; with human CD45RC [19], 76.7%; with human CD45RC [20] it was 0%. The % of cells CD45RC negative in the experiment with human CD45RC [21] was 55.6%; with human CD45RC [22], 5.5%; with human CD45RC [23], 0.23%; with human CD45RC [24], 92.7%.

B1: Anti-45RC Variant A (antibody, human IgG1, kappa, V domains shown)
VH: QVQLVQSGAEVKKPGASVKVSCKASGYTFTNYYIGWVRQAPGQGLEWIGDIFPGGDYANSNEKFKGRVTLTADTSISTAYMELSRLRSDDTVVYYCVRRNFDYWGQGTLVTVSS
VL: DIQLTQSPSFLSASVGDRVTITCSASSSVSYMHWFQQKPGKAPKLWIYNTSNLPSGVPSRFSGSGSGTEYTLTISSLQPEDFATYYCQQRSSYPLTFGGGTKVEIKR
Regarding B1, the % of cells CD45RC+ in experiment [25] is 75.6%; in experiment [26], 17.2%.

B2: Anti-45RC Variant A3 (antibody, human IgG1, kappa, V domains shown)
VH: B1 VH with D56G, A58T, S60Y, N61A, K65Q
VL: B1 VL with S24R, F35Y
In the case of B2, the % of cells CD45RC+ came out at 82.6% in experiment [25] and 15.2% in experiment [26].

B3: Anti-45RC Variant A1 (antibody, human IgG1, kappa, V domains shown)
VH: B1 VH with A58T, S60Y, N61A, K65Q
VL: B1 VL with S24R, F35Y
With B3, the % of cells CD45RC+ in experiment [25] came out at 76.3%; in experiment [26], 15.6%.

B4: ABIS-45RC (antibody, mouse IgG1, kappa, V domains shown)
VH: QVQLQQSGAELVRPGTSVKMSCKAAGYTFTNYYIGWVKQRPGHGLEWIGDIFPGGDYANSNEKFKGKATLTADTSSSTAYMQLSSLTSEDSAIYYCVRRNFDYWGQGTTLTVSS
VL: QIVLTQSPTIMSASPGEKVTITCSASSSVSYMHWFQQKTGTSPRLWIYNTSNLPSGVPARFSGSGSGTSYSLTISRMEAEDAATYYCQQRSSYPLTFGAGTKLELKR
notes: the variable domains are the same; also called murine ABIS-45RC; murine anti-hCD45RC antibody of the invention
B4 had a % of cells CD45RC+ in experiment [25] of 74.1%. This molecule displayed a % of cells CD45RC+ in [26] of 26.1%. For the same molecule, in the experiment with human CD45RC [27], binding was characterised by a dissociation constant (Kd) of 50 nM, the koff (usually the first-order rate constant of dissociation) came to 0.0144 s⁻¹ and the kon (commonly the rate constant with which the complex forms) came to 291000 M⁻¹ s⁻¹.
